Values of other authors in patent US6552168B1, “Gamma-ketoacid tetrapeptides as inhibitors of caspase-3” (Merck Frosst Canada & Co., priority 1998, dated 2003).

How the values were obtained:
caspase-3 = molecular target: T1, caspase-3 (Homo sapiens, UniProt P42574)
T1 sequence (P42574 29-175 limits assumed): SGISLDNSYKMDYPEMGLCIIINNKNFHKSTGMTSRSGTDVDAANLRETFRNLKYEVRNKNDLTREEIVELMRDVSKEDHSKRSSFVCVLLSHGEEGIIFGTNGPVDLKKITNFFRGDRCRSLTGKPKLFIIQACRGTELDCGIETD
T1 sequence (P42574 176-277 limits assumed): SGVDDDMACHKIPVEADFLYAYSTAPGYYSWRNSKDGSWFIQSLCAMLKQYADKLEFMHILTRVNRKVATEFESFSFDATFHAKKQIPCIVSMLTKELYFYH

caspase-1 = molecular target: T2, caspase-1 (Homo sapiens, UniProt P29466)
T2 sequence (P29466 120-297 limits assumed): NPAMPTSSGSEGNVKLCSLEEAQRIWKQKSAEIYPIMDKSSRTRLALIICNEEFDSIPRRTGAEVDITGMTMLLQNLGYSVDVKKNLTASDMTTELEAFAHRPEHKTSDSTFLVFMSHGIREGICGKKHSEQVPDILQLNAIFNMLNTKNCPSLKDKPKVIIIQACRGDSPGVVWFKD
T2 sequence (P29466 317-404 limits assumed): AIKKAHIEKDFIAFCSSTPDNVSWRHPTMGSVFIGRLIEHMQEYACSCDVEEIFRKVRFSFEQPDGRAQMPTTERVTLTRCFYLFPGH

## Ac-YVAD-CHO
caspase-3
  Ki: 12 µM
caspase-1
  Ki: < 0.001 µM
caspase-1; slow-binding time-dependent inhibition
  kon caspase-1: 380000 M⁻¹ s⁻¹
